Measurements taken from patent US20180296691A1 (Pfizer, published 2018).

Assays:
[1] = target: T1, human EFNA4 expressed on cells (human, UniProt P52798 26-170); assay: flow cytometry, MEC1 B-CLL cells (endogenous EFNA4), 10 µg/ml antibody
T1 sequence: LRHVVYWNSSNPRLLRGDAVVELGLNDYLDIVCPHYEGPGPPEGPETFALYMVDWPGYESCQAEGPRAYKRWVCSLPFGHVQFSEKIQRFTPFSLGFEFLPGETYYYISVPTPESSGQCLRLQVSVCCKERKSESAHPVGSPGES

[2] = target: T1, human EFNA4 expressed on cells; assay: flow cytometry, MX-1 breast cells (endogenous EFNA4), 10 µg/ml antibody
[3] = target: T1, human EFNA4 expressed on cells; assay: flow cytometry, HCC202 breast cells (endogenous EFNA4), 10 µg/ml antibody
[4] = target: T1, human EFNA4 expressed on cells; assay: flow cytometry, Z138 mantle cell lymphoma cells (endogenous EFNA4), 10 µg/ml antibody
[5] = target: T2, human EFNA4 antigen (ephrin-A4 ligand) (human, UniProt P52798 26-170); assay: Hu Ag Affinity (Humanized mAb); method not stated
T2 construct: also called Hu Ag
T2 sequence: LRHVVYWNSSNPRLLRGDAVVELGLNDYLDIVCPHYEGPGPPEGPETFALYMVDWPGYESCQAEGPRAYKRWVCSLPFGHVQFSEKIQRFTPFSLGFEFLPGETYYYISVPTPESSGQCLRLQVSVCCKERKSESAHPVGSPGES

[6] = target: T3, monomeric human Ephrin-A4 (human), P52798; assay: SPR (BIAcore 2000), Eph receptor captured via anti-human antibody capture kit, monomeric human Ephrin-A4 12-400 nM as analyte, steady state affinity fit; conditions: remark: other sources report otherwise
T3 chain: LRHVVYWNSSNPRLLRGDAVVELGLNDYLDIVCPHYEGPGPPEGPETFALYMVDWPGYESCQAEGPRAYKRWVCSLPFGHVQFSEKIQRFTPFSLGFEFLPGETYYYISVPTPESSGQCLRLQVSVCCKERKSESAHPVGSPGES

[7] = target: T1, human EFNA4 expressed on cells; assay: cell-based or functional assay
[8] = target: T1, human EFNA4 expressed on cells; assay: cell-based or functional assay; remark: listed apart in the source
[9] = target: T4, recombinant human EFNA4 extracellular domain fused to a histidine tag (human, UniProt P52798 26-170); assay: SPR (BIAcore 2000), recombinant EFNA4 ECD-His
T4 construct: also called hEFNA4-ECD-His; not shown: histidine tag
T4 sequence: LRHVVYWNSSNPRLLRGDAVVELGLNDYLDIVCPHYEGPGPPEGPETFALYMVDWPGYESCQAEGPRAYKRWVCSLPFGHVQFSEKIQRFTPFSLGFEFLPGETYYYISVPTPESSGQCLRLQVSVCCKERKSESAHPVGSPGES

[10] = target: T5, recombinant cynomolgus monkey EFNA4 extracellular domain fused to a histidine tag (cynomolgus monkey, UniProt A0A2K5U3S7 84-228); assay: SPR (BIAcore 2000), recombinant EFNA4 ECD-His
T5 construct: extracellular domain; not shown: histidine tag
T5 sequence: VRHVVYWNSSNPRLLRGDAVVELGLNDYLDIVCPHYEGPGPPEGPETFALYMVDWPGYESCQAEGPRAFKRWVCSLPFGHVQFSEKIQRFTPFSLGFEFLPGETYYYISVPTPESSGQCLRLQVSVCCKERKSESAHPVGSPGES

[11] = target: T6, recombinant rat EFNA4 extracellular domain fused to a histidine tag (rat, UniProt D3ZEN1 26-173); assay: SPR (BIAcore 2000), recombinant EFNA4 ECD-His
T6 construct: extracellular domain; also called rat antigen; not shown: histidine tag
T6 sequence: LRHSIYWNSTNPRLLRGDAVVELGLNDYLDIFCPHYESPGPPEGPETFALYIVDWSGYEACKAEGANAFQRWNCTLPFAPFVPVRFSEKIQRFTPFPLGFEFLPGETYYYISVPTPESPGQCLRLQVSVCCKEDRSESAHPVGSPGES

Ephrin-A1-His (R&D) [12] = target: T7, Ephrin-A1-His (R&D) (UniProt P20827 19-182); assay: direct ELISA, Ephrin-A1-His coated on the plate, biotin-labeled huE22, streptavidin-HRP, OD450
T7 construct: also called Ephrin-A1 (EFNA1); EFNA1; not shown: His tag
T7 sequence (looked up): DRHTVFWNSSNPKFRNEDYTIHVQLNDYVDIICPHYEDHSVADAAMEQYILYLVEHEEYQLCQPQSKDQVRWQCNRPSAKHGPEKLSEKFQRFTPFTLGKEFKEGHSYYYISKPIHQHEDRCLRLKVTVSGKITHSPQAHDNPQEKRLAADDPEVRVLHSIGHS

Ephrin-A3-huFc (R&D) [13] = target: T8, Ephrin-A3-huFc (R&D) (UniProt P52797 23-214, limits assumed); assay: direct ELISA, Ephrin-A3-huFc coated on the plate, biotin-labeled huE22, streptavidin-HRP, OD450
T8 construct: also called Ephrin-A3 (EFNA3); EFNA3; not shown: human Fc
T8 sequence (looked up): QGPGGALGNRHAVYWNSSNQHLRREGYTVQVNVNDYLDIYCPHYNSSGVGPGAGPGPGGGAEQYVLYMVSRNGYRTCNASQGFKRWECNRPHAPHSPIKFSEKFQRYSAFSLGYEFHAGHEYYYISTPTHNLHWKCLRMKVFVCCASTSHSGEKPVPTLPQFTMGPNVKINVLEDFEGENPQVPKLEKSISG

Ephrin-A4-huFc (R&D) = target: T9, Ephrin-A4-huFc (R&D) (human, UniProt P52798 26-170); assay: direct ELISA, Ephrin-A4-huFc coated on the plate, biotin-labeled huE22, streptavidin-HRP, OD450
T9 construct: bought reagent; also called Ephrin-A4 (EFNA4); EFNA4; not shown: human Fc
T9 sequence: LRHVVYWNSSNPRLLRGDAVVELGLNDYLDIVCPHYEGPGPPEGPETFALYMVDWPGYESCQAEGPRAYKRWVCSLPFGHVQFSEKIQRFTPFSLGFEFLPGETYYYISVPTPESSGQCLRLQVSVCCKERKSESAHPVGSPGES

Ephrin-A5-huFc (R&D) = target: T10, Ephrin-A5-huFc (R&D) (UniProt P52803 21-203); assay: direct ELISA, Ephrin-A5-huFc coated on the plate, biotin-labeled huE22, streptavidin-HRP, OD450
T10 construct: also called EFNA5; not shown: human Fc
T10 sequence (looked up): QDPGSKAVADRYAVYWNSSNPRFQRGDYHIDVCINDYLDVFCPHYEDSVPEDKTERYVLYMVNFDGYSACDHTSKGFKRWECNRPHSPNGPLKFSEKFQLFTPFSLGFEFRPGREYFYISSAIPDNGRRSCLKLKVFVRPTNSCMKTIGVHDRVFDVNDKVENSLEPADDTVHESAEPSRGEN

[14] = target: T1, human EFNA4 expressed on cells; assay: cell-based or functional assay; remark: listed apart in the source
Ephrin-A1-His (R&D) [15] = target: T7, Ephrin-A1-His (R&D); assay: direct ELISA, Ephrin-A1-His coated on the plate, biotin-labeled huE47, streptavidin-HRP, OD450
Experimental: (§1) Antibody binding was determined by direct ELISA with Ephrin-A1-His, Ephrin-A3-huFc, Ephrin-A4-huFc and Ephrin-A5-huFc (all from R&D) coated on BioOne Microlon (Greiner) plates in PBS overnight at 4° C.

Ephrin-A3-huFc (R&D) [16] = target: T8, Ephrin-A3-huFc (R&D); assay: direct ELISA, Ephrin-A3-huFc coated on the plate, biotin-labeled huE47, streptavidin-HRP, OD450
Experimental: as §1

## Non-binding control IgG (antibody)
[1]
  Mean Channel Fluorescent (MCF): 7.2
[2]
  Mean Channel Fluorescent (MCF): 3.6
[3]
  Mean Channel Fluorescent (MCF): 15.6
[4]
  Mean Channel Fluorescent (MCF): 7.4

B1: humanized anti-EFNA4 antibody huE15 (antibody, human IgG1, V domains shown)
VH: EVQLVESGGGLVKPGGSLRLSCAASGFTFSTYGMSWVRQAPGKGLEWVATISSGGTYTYYPDSVKGRFKISRDNAKNSLYLQMNSLRAEDTAVYYCTRHDPNDGYYFLFAYWGQGTLVTVSS
VL: EIVLTQSPGTLSLSPGERATLSCKASQSVGNNVAWYQQKPGQAPRLLIYYASNRYTGIPDRFSGSGSGTDFTLTISRLEPEDFAVYYCQQHYSSPLTFGAGTKLEIK
[5]
  Kd: 4.8 nM

B2: recombinant EphB3 receptor (commercially available), P54753 34-559 (receptor, UniProt P54753 34-559, looked up)
chain: GCRALEETLMDTKWVTSELAWTSHPESGWEEVSGYDEAMNPIRTYQVCNVRESSQNNWLRTGFIWRRDVQRVYVELKFTVRDCNSIPNIPGSCKETFNLFYYEADSDVASASSPFWMENPYVKVDTIAPDESFSRLDAGRVNTKVRSFGPLSKAGFYLAFQDQGACMSLISVRAFYKKCASTTAGFALFPETLTGAEPTSLVIAPGTCIPNAVEVSVPLKLYCNGDGEWMVPVGACTCATGHEPAAKESQCRPCPPGSYKAKQGEGPCLPCPPNSRTTSPAASICTCHNNFYRADSDSADSACTTVPSPPRGVISNVNETSLILEWSEPRDLGGRDDLLYNVICKKCHGAGGASACSRCDDNVEFVPRQLGLTERRVHISHLLAHTRYTFEVQAVNGVSGKSPLPPRYAAVNITTNQAAPSEVPTLRLHSSSGSSLTLSWAPPERPNGVILDYEMKYFEKSEGIASTVTSQMNSVQLDGLRPDARYVVQVRARTVAGYGQYSRPAEFETTSERGSGAQQLQEQLPL
[6]
  Kd: 108 nM

B3: humanized anti-EFNA4 antibody huE22 (antibody, human IgG1, kappa, V domains shown)
VH: QVQLVQSGAEVKKPGASVKVSCKASGYTFTGYYIHWVRQAPGQGLEWMGWIYPGNFNTKYNERFKGRVTMTTDTSTSTAYMELRSLRSDDTAVYYCAREDGSPYYAMDYWGQGTSVTVSS
VL: DIVMTQTPLSLSVTPGQPASISCRSSQSLVHSNGNTFLYWYLQKPGQSPQLLIYRVSNRFSGVPDRFSGSGSGTDFTLKISRVEAEDVGVYYCFQATHVPWTFGGGTKVEIKR
notes: human IgG1 / kappa; also called huE22 mAb; unconjugated huE22
[7]
  specificity of saporin-mediated cytotoxicity, HEK293T-EFNA4 over HEK293T parental cells: ~60 fold
[8]
  Saporin-mediated cytotoxicity IC50 (MTS viability), HEK293T parent cells, huE22 plus saporin-conjugated anti-human Fab: 174 ng/mL
  Saporin-mediated cytotoxicity IC50 (MTS viability), HEK293T-EFNA4 cells, huE22 plus saporin-conjugated anti-human Fab: 3 ng/mL
[9]
  Kd: 1.7 nM
  koff: 0.0033 s⁻¹
  kon: 1.9e+06 M⁻¹ s⁻¹
[10]
  Kd: 2.1 nM
  koff: 0.0078 s⁻¹
  kon: 3.8e+06 M⁻¹ s⁻¹
[11]
  binding result: no binding (tested: 400 nM antigen)
[5]
  Kd: 3.8 nM
Ephrin-A1-His (R&D) [12]
  binding result: no binding (tested: 1000 ng/ml)
Ephrin-A3-huFc (R&D) [13]
  binding result: no binding (tested: 1000 ng/ml)
Ephrin-A4-huFc (R&D)
  EC50 (read off the curve): ~4 ng/mL
Ephrin-A5-huFc (R&D)
  binding result: no binding (tested: 1000 ng/ml)

B4: huE22-AcBut-CM antibody-drug conjugate (antibody, V domains shown)
VH: QVQLVQSGAEVKKPGASVKVSCKASGYTFTGYYIHWVRQAPGQGLEWMGWIYPGNFNTKYNERFKGRVTMTTDTSTSTAYMELRSLRSDDTAVYYCAREDGSPYYAMDYWGQGTSVTVSS
VL: DIVMTQTPLSLSVTPGQPASISCRSSQSLVHSNGNTFLYWYLQKPGQSPQLLIYRVSNRFSGVPDRFSGSGSGTDFTLKISRVEAEDVGVYYCFQATHVPWTFGGGTKVEIKR
modifications: AcBut-N-acetyl-gamma-calicheamicin dimethyl hydrazide (AcBut-CM) conjugated via lysine residues (sites not given); average DAR about 3 to 5
notes: also called huE22-AcBut-CM ADC; huE22-ActBut-CM
[14]
  Anti-EFNA4-AcBut-CM cytotoxicity IC50 (MTS viability, 96 h), HEK293T-EFNA4 cells: 1 ng/mL
[9]
  Kd: 2.3 nM
  koff: 0.0061 s⁻¹
  kon: 2.6e+06 M⁻¹ s⁻¹
[10]
  Kd: 2.7 nM
  koff: 0.011 s⁻¹
  kon: 4.2e+06 M⁻¹ s⁻¹
[11]
  binding result: no binding (tested: 400 nM antigen)

B5: humanized anti-EFNA4 antibody huE47 (antibody, human IgG1, kappa, V domains shown)
VH: QVQLVQSGAEVKKPGASVKVSCKASGYTFTYFYMNWVRQAPGQGLEWVGQINPNNGGTAYAQKFQGRVTMTRDTSTSTVYMELSSLRSEDTAVYYCARWVGTHYFDYWGQGTTLTVSS
VL: EIVLTQSPATLSLSPGERATLSCRASQSVSSSSYTYIHWYQQKPGQAPRLLINFASNLESGIPARFSGSGSGTDFTLTISSLEPEDFAVYYCQHSWEIPPTFGGGTKLEIKR
notes: human IgG1 / kappa
[5]
  Kd: < 0.1 nM
Ephrin-A1-His (R&D) [15]
  binding result: no binding (tested: 1000 ng/ml)
Ephrin-A3-huFc (R&D) [16]
  binding result: no binding (tested: 1000 ng/ml)

B6: recombinant EphA1 receptor (commercially available), P21709 26-547 (receptor, UniProt P21709 26-547, looked up)
chain: KEVTLMDTSKAQGELGWLLDPPKDGWSEQQQILNGTPLYMYQDCPMQGRRDTDHWLRSNWIYRGEEASRVHVELQFTVRDCKSFPGGAGPLGCKETFNLLYMESDQDVGIQLRRPLFQKVTTVAADQSFTIRDLVSGSVKLNVERCSLGRLTRRGLYLAFHNPGACVALVSVRVFYQRCPETLNGLAQFPDTLPGPAGLVEVAGTCLPHARASPRPSGAPRMHCSPDGEWLVPVGRCHCEPGYEEGGSGEACVACPSGSYRMDMDTPHCLTCPQQSTAESEGATICTCESGHYRAPGEGPQVACTGPPSAPRNLSFSASGTQLSLRWEPPADTGGRQDVRYSVRCSQCQGTAQDGGPCQPCGVGVHFSPGARGLTTPAVHVNGLEPYANYTFNVEAQNGVSGLGSSGHASTSVSISMGHAESLSGLSLRLVKKEPRQLELTWAGSRPRSPGANLTYELHVLNQDEERYQMVLEPRVLLTELQPDTTYIVRVRMLTPLGPGPFSPDHEFRTSPPVSRGLTGGE
[6]
  Kd: 414 nM
